# Residue numbers refer to the chain shown, from its start.
# B1: 49M, 72A (protein, listed as Rattus norvegicus)
# chain: AFDGTWKVDRNENYEKFMEKMGINVVKRKLGAHDNLKLTITQEGNKFTMKESSNFRNIDVVFELGVDFAYSAADGTELTGTWTMEGNKLVGKFKRVDNGKELIAVREISGNELIQTYTYEGVEAKRIFKKE
# modifications: PEPTIDE (1)...(131) wild-type rat intestinal fatty acid binding protein
# B2: 14L 38I 72A (protein, listed as Rattus norvegicus)
# chain: B1 chain with Y14L, L38I, M49V
# modifications: PEPTIDE (1)...(131) wild-type rat intestinal fatty acid binding protein
# B3: 40V, 72A (protein, listed as Rattus norvegicus)
# chain: B1 chain with I40V, M49V
# modifications: PEPTIDE (1)...(131) wild-type rat intestinal fatty acid binding protein
# B4: 18K, 72A (protein, listed as Rattus norvegicus)
# chain: B1 chain with M18K, M49V
# modifications: PEPTIDE (1)...(131) wild-type rat intestinal fatty acid binding protein
# B5: 70H, 72A (protein, listed as Rattus norvegicus)
# chain: B1 chain with M49V, Y70H
# modifications: PEPTIDE (1)...(131) wild-type rat intestinal fatty acid binding protein
# B6: 70W, 72A (protein, listed as Rattus norvegicus)
# chain: B1 chain with M49V, Y70W
# modifications: PEPTIDE (1)...(131) wild-type rat intestinal fatty acid binding protein
# B7: 106A, 72A (protein, listed as Rattus norvegicus)
# chain: B1 chain with M49V, R106A
# modifications: PEPTIDE (1)...(131) wild-type rat intestinal fatty acid binding protein
# B8: 106F, 72A (protein, listed as Rattus norvegicus)
# chain: B1 chain with M49V, R106F
# modifications: PEPTIDE (1)...(131) wild-type rat intestinal fatty acid binding protein
# B9: 55L, 72A (protein, listed as Rattus norvegicus)
# chain: B1 chain with M49V, F55L
# modifications: PEPTIDE (1)...(131) wild-type rat intestinal fatty acid binding protein
# B10: 38G, 72A (protein, listed as Rattus norvegicus)
# chain: B1 chain with L38G, M49V
# modifications: PEPTIDE (1)...(131) wild-type rat intestinal fatty acid binding protein
# B11: 119L, 72A (protein, listed as Rattus norvegicus)
# chain: B1 chain with M49V, Y119L
# modifications: PEPTIDE (1)...(131) wild-type rat intestinal fatty acid binding protein
# B12: 106I, 72A (protein, listed as Rattus norvegicus)
# chain: B1 chain with M49V, R106I
# modifications: PEPTIDE (1)...(131) wild-type rat intestinal fatty acid binding protein
# B13: 106V, 72A (protein, listed as Rattus norvegicus)
# chain: B1 chain with M49V, R106V
# modifications: PEPTIDE (1)...(131) wild-type rat intestinal fatty acid binding protein
# B14: 31W, 72A (protein, listed as Rattus norvegicus)
# chain: B1 chain with G31W, M49V
# modifications: PEPTIDE (1)...(131) wild-type rat intestinal fatty acid binding protein
# B15: 91Y, 72A (protein, listed as Rattus norvegicus)
# chain: B1 chain with M49V, G91Y
# modifications: PEPTIDE (1)...(131) wild-type rat intestinal fatty acid binding protein
# B16: 40M, 72A (protein, listed as Rattus norvegicus)
# chain: B1 chain with I40M, M49V
# modifications: PEPTIDE (1)...(131) wild-type rat intestinal fatty acid binding protein
# B17: 38H, 72A (protein, listed as Rattus norvegicus)
# chain: B1 chain with L38H, M49V
# modifications: PEPTIDE (1)...(131) wild-type rat intestinal fatty acid binding protein
# B18: 106H, 72A (protein, listed as Rattus norvegicus)
# chain: B1 chain with M49V, R106H
# modifications: PEPTIDE (1)...(131) wild-type rat intestinal fatty acid binding protein
# B19: 126K, 72A (protein, listed as Rattus norvegicus)
# chain: B1 chain with M49V, R126K
# modifications: PEPTIDE (1)...(131) wild-type rat intestinal fatty acid binding protein
# B20: 115W, 72A (protein, listed as Rattus norvegicus)
# chain: B1 chain with M49V, Q115W
# modifications: PEPTIDE (1)...(131) wild-type rat intestinal fatty acid binding protein
# B21: 70S, 72A (protein, listed as Rattus norvegicus)
# chain: B1 chain with M49V, Y70S
# modifications: PEPTIDE (1)...(131) wild-type rat intestinal fatty acid binding protein
# B22: 72A 117A (protein, listed as Rattus norvegicus)
# chain: B1 chain with M49V, Y117A
# modifications: PEPTIDE (1)...(131) wild-type rat intestinal fatty acid binding protein
# B23: 91C, 72A (protein, listed as Rattus norvegicus)
# chain: B1 chain with M49V, G91C
# modifications: PEPTIDE (1)...(131) wild-type rat intestinal fatty acid binding protein
# Experiment: Probe fluorescence ratio response to linolenic acid relative to ADIFAB2
# Type: binding
# Settings: response relative to ADIFAB2
# In short: (§1)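 Fluorescently labeled rat intestinal FABP variants were read at two emission wavelengths, near the unbound maximum (about 420 to 480 nm) and the FFA-bound maximum (about 495 to 580 nm). R = Fλ1/Fλ2 after subtracting probe-free intensity; ΔR = R+agent − R0, normalized to ADIFAB2 (rI-FABP-L72A).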
row,Molecule,DR/DR LNA
1,B1,1.369
2,B2,1.177
3,B3,1.059
4,B4,0.925
5,B5,0.886
6,B6,0.385
7,B7,0.518
8,B8,0.706
9,B9,0.719
10,B10,0.992
11,B11,1.053
12,B12,0.624
13,B13,0.592
14,B14,1.031
15,B15,1.626
16,B16,1.021
17,B17,0.864
18,B18,0.633
19,B19,1.017
20,B20,1.396
21,B21,0.703
22,B22,0.689
23,B23,1.420

# Experiment: Probe fluorescence ratio response to arachidonic acid relative to ADIFAB2
# Type: binding
# Settings: arachidonic acid; response relative to ADIFAB2
# In short: as §1
row,Molecule,DR/DR AA
1,B1,1.363
2,B2,1.046
3,B3,1.013
4,B4,0.800
5,B5,0.751
6,B6,0.349
7,B7,0.389
8,B8,0.754
9,B9,0.863
10,B10,0.996
11,B11,1.021
12,B12,0.481
13,B13,0.398
14,B14,0.993
15,B15,1.273
16,B16,0.993
17,B17,0.998
18,B18,0.636
19,B19,0.625
20,B20,1.483
21,B21,0.625
22,B22,1.480
23,B23,1.201

# Experiment: Probe fluorescence ratio response to linoleic acid relative to ADIFAB2
# Type: binding
# Settings: response relative to ADIFAB2
# In short: as §1
row,Molecule,DR/DR LA
1,B1,1.370
2,B2,1.090
3,B3,1.057
4,B4,0.967
5,B5,0.929
6,B6,0.451
7,B7,0.515
8,B8,0.812
9,B9,0.706
10,B10,1.003
11,B11,1.134
12,B12,0.563
13,B13,0.574
14,B14,1.147
15,B15,1.415
16,B16,1.086
17,B17,0.905
18,B18,0.669
19,B19,1.039
20,B20,1.486
21,B21,0.794
22,B22,1.193
23,B23,1.371

# Experiment: Probe fluorescence ratio response to palmitic acid relative to ADIFAB2
# Type: binding
# Settings: response relative to ADIFAB2
# In short: as §1
row,Molecule,DR/DR PA
1,B1,0.939
2,B2,0.712
3,B3,0.867
4,B4,0.544
5,B5,0.567
6,B6,0.212
7,B7,0.164
8,B8,0.369
9,B9,0.631
10,B10,0.447
11,B11,0.661
12,B12,0.223
13,B13,0.191
14,B14,0.618
15,B15,0.870
16,B16,0.691
17,B17,0.624
18,B18,0.258
19,B19,0.356
20,B20,0.805
21,B21,0.416
22,B22,0.433
23,B23,0.794

# Experiment: Probe fluorescence ratio response to oleic acid relative to ADIFAB2
# Type: binding
# Settings: response relative to ADIFAB2
# In short: as §1
row,Molecule,DR/DR OA
1,B1,1.296
2,B2,0.653
3,B3,1.002
4,B4,0.803
5,B5,0.836
6,B6,0.381
7,B7,0.596
8,B8,0.815
9,B9,0.822
10,B10,0.945
11,B11,0.778
12,B12,0.661
13,B13,0.657
14,B14,0.868
15,B15,1.706
16,B16,0.990
17,B17,0.955
18,B18,0.732
19,B19,0.631
20,B20,1.352
21,B21,0.727
22,B22,1.080
23,B23,1.470
